Measured values reported in PMC5766609 (Scientific Reports, 2018).
Each block holds one binder with its values, some of them ahead of it. Starred links: 1 amine or outer side, 2 acyl side, 3 side chain; linkers in the order of their positions; H or OH if unused. Non-standard residues stand in square brackets, D forms with d. Groups on a side chain read outwards from the residue. No end group written: not given here. *: point of attachment. γGlu = O=C(O)[C@H](CCC(=O)[*:2])N[*:1]; Palmitoyl = CCCCCCCCCCCCCCCC(=O)*

Columns and labels:
[1] = target: glucagon receptor (human) (UniProt P47871)
[2] = target: human GLP-1 receptor (human) (UniProt P43220)
[3] = target: glucagon receptor (human) (UniProt P47871); remark: listed apart in the source
[4] = target: human GLP-1 receptor (human) (UniProt P43220); remark: listed apart in the source

Sequence of human GLP-1 receptor (human) (P43220 24-463): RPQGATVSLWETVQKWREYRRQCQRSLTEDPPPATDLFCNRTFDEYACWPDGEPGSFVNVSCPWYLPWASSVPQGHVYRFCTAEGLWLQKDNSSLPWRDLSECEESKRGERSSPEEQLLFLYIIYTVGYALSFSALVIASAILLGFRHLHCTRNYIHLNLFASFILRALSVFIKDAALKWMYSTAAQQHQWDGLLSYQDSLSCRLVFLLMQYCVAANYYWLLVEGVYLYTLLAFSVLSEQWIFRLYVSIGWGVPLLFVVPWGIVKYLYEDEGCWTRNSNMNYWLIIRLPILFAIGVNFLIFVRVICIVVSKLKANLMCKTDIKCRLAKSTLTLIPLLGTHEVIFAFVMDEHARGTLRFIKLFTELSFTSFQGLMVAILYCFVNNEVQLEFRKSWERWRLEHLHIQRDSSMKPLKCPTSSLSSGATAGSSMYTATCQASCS
Sequence of glucagon receptor (human) (P47871 26-477): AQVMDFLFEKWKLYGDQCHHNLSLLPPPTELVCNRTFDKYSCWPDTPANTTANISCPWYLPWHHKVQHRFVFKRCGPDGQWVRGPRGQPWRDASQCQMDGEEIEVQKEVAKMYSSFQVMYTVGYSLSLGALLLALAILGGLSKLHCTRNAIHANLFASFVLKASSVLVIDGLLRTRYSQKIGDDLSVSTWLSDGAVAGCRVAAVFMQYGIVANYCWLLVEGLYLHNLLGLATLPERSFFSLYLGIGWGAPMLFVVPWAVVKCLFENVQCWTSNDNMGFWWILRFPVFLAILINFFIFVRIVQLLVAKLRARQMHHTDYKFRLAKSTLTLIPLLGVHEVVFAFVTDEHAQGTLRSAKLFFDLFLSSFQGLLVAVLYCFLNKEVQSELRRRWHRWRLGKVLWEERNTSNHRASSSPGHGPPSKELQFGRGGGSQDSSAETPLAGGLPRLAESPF

Binder: HSQGTFTSDYSKYLDSRRAQDFVQWLINY-NH2 [Peptide 13]
EC50 GCGR (nM); cAMP assay on CHO-JumpIn cells with human GCGR [1]: 0.078 nM
EC50 GLP1R (nM); cAMP assay on CHO-JumpIn cells with human GLP1R [2]: 0.039 nM

Binder: INHEQWAFTSDYSKYLDSRRAQDFVQWLMNT-NH2 [Peptide 14]
EC50 GCGR (nM); cAMP assay on CHO-JumpIn cells with human GCGR [1]: 2.6 nM
EC50 GLP1R (nM); cAMP assay on CHO-JumpIn cells with human GLP1R [2]: 16.7 nM

Binder: HSQGTFTSDYSKYVEDRRAHDFVQWLMNT-NH2 [Peptide 2]
EC50 GCGR (nM); cAMP assay on CHO-JumpIn cells with human GCGR [1]: 2.24 nM
EC50 GLP1R (nM); cAMP assay on CHO-JumpIn cells with human GLP1R [2]: 0.184 nM

Binder: HSQGTFLHDYYYYLDSRRAQDFVQWLMDT-NH2 [Peptide 17]
EC50 GCGR (nM); cAMP assay on CHO-JumpIn cells with human GCGR [1]: 0.527 nM
EC50 GLP1R (nM); cAMP assay on CHO-JumpIn cells with human GLP1R [2]: > 200 nM

Binder: HSQGTFTSDYSKYLDSIRAQDFVQWLMDT-NH2 [Peptide 18]
EC50 GCGR (nM); cAMP assay on CHO-JumpIn cells with human GCGR [1]: 0.037 nM
EC50 GLP1R (nM); cAMP assay on CHO-JumpIn cells with human GLP1R [2]: 0.056 nM

Binder: KALGQFTFTSDYSKYLDSRRAQDFVQWLMNT-NH2 [Peptide 21]
EC50 GCGR (nM); cAMP assay on CHO-JumpIn cells with human GCGR [1]: 4.18 nM
EC50 GLP1R (nM); cAMP assay on CHO-JumpIn cells with human GLP1R [2]: 14.8 nM

Binder: HSQGTFTSDYRKYLDERAAWDFVQWLMNT-NH2 [Peptide 3]
EC50 GCGR (nM); cAMP assay on CHO-JumpIn cells with human GCGR [1]: 1.35 nM
EC50 GLP1R (nM); cAMP assay on CHO-JumpIn cells with human GLP1R [2]: 0.427 nM

Binder: HSQGTFTSDYSKYLDIGRAQDFVQWLLNT-NH2 [Peptide 4]
EC50 GCGR (nM); cAMP assay on CHO-JumpIn cells with human GCGR [1]: 0.026 nM
EC50 GLP1R (nM); cAMP assay on CHO-JumpIn cells with human GLP1R [2]: 1.33 nM

More lines, now with the values ahead:

EC50 GCGR (nM); cAMP assay on CHO-JumpIn cells with human GCGR [1]: 0.026 nM
EC50 GLP1R (nM); cAMP assay on CHO-JumpIn cells with human GLP1R [2]: 0.018 nM
Binder: HSQGTFTSDYSKYLDSKRAHDFVQWLLNT-NH2 [Peptide 24]

EC50 GCGR (nM); cAMP assay on CHO-JumpIn cells with human GCGR [1]: > 200 nM
EC50 GLP1R (nM); cAMP assay on CHO-JumpIn cells with human GLP1R [2]: 8.96 nM
Binder: HSQGTFTSDYSKYLDSRRAQDFVMTSMNT-NH2 [Peptide 26]

EC50 GCGR (nM); cAMP assay on CHO-JumpIn cells with human GCGR [1]: 0.016 nM
EC50 GLP1R (nM); cAMP assay on CHO-JumpIn cells with human GLP1R [2]: 0.007 nM
Binder: HSQGTFTSDYSKYLDSRRAQDFVDWLINS-NH2 [Peptide 28]

EC50 GCGR (nM); cAMP assay on CHO-JumpIn cells with human GCGR [1]: 0.026 nM
EC50 GLP1R (nM); cAMP assay on CHO-JumpIn cells with human GLP1R [2]: > 200 nM
Binder: HSQGIFFSDYSKYLDSRRAQDFVQWLMNT-NH2 [Peptide 30]

EC50 GCGR (nM); cAMP assay on CHO-JumpIn cells with human GCGR [1]: 0.079 nM
EC50 GLP1R (nM); cAMP assay on CHO-JumpIn cells with human GLP1R [2]: 0.059 nM
Binder: HSQGTFTSDYSKYLDSRMAYDFVQWLMNT-NH2 [Peptide 33]

EC50 GCGR (nM); cAMP assay on CHO-JumpIn cells with human GCGR [1]: 0.027 nM
EC50 GLP1R (nM); cAMP assay on CHO-JumpIn cells with human GLP1R [2]: 51.9 nM
Binder: HSQGTFFSDYSKYLDSRRAQDFVQWLLET-NH2 [Peptide 34]

EC50 GCGR (nM); cAMP assay on CHO-JumpIn cells with human GCGR [1]: 0.0019 nM
EC50 GLP1R (nM); cAMP assay on CHO-JumpIn cells with human GLP1R [2]: 0.018 nM
Binder: HSQGTFTSDYSKYLDSRRAQDFVQWLLDS-NH2 [Peptide 35]

EC50 hGCGR (nM); cAMP assay on CHO-JumpIn cells with human GCGR [3]: 0.023 nM
EC50 hGLP1 (nM); cAMP assay on CHO-JumpIn cells with human GLP1R [4]: 0.05 nM
B1: Peptide 36 (peptide)
peptide: H[dS]QGTFTSDK([γGlu-γGlu-Palmitoyl])SKYLDSRRAHDFVQWLLNT-NH2
modifications: N-terminus assumed
SMILES: CCCCCCCCCCCCCCCC(=O)N[C@@H](CCC(=O)N[C@@H](CCC(=O)NCCCC[C@H](NC(=O)[C@H](CC(=O)O)NC(=O)[C@H](CO)NC(=O)[C@@H](NC(=O)[C@H](Cc1ccccc1)NC(=O)[C@@H](NC(=O)CNC(=O)[C@H](CCC(N)=O)NC(=O)[C@@H](CO)NC(=O)[C@@H](N)Cc1c[nH]cn1)[C@@H](C)O)[C@@H](C)O)C(=O)N[C@@H](CO)C(=O)N[C@@H](CCCCN)C(=O)N[C@@H](Cc1ccc(O)cc1)C(=O)N[C@@H](CC(C)C)C(=O)N[C@@H](CC(=O)O)C(=O)N[C@@H](CO)C(=O)N[C@@H](CCCNC(=N)N)C(=O)N[C@@H](CCCNC(=N)N)C(=O)N[C@@H](C)C(=O)N[C@@H](Cc1c[nH]cn1)C(=O)N[C@@H](CC(=O)O)C(=O)N[C@@H](Cc1ccccc1)C(=O)N[C@H](C(=O)N[C@@H](CCC(N)=O)C(=O)N[C@@H](Cc1c[nH]c2ccccc12)C(=O)N[C@@H](CC(C)C)C(=O)N[C@@H](CC(C)C)C(=O)N[C@@H](CC(N)=O)C(=O)N[C@H](C(N)=O)[C@@H](C)O)C(C)C)C(=O)O)C(=O)O
